Assay [1] addresses T1, translation elongation factor eEF1Bβ, full-length (human), P29692.
T1 chain: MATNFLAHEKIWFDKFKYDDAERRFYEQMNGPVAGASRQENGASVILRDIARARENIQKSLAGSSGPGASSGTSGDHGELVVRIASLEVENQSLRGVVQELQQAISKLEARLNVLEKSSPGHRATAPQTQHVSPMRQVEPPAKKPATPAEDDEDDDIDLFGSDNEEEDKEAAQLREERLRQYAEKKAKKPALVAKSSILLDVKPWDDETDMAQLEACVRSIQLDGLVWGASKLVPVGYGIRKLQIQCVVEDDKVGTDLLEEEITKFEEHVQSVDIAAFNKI
The experiment in a line: AUC. Conditions: remark: other sources report otherwise.

For assay [2], the target named is T1, translation elongation factor eEF1Bβ, …. The experiment in a line: AUC. The conditions noted are these: remark: other sources report otherwise.
For assay [3] the target is unchanged. The experiment in a line: AUC. Conditions: remark: other sources report otherwise.
In assay [4] the target is eEF1B(αβγ)3 complex, reconstituted from full-length eEF1Bα, eEF1Bβ and eEF1Bγ (human, UniProt P24534 1-225; P29692 1-281; P26641 1-437). Description: native gel or EMSA. For orientation: A gel shift assay detects complexes by their altered migration in electrophoresis.
eEF1B(αβγ)3 complex, reconstituted from full-length eEF1Bα, eEF1Bβ and eEF1Bγ, sequence (P24534 whole entry, chain 1 of 2): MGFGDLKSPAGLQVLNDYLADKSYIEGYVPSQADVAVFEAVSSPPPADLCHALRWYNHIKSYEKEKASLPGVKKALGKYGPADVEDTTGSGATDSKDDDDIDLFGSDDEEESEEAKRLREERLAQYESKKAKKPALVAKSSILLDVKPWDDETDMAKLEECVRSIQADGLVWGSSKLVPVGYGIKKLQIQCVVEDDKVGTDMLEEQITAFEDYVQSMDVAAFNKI
eEF1B(αβγ)3 complex, reconstituted from full-length eEF1Bα, eEF1Bβ and eEF1Bγ, sequence (P26641 whole entry, chain 3 of 2): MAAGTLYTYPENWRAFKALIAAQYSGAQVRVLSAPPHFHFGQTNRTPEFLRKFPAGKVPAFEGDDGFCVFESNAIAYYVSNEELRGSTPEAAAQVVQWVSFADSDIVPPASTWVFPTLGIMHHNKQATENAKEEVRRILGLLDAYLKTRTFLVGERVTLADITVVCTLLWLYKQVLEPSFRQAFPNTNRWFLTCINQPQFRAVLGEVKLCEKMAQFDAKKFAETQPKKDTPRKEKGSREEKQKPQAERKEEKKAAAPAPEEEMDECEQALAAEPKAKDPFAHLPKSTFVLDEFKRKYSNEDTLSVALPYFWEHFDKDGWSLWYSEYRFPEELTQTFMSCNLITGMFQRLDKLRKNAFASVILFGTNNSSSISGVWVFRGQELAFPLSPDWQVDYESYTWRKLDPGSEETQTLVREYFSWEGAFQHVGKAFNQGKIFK

Experimental findings from publication PMC9458455 (Nucleic Acids Research, 2022) are described below.

B1: translation elongation factor eEF1Bβ, full-length, P29692 1-281 (natural protein)
chain: MATNFLAHEKIWFDKFKYDDAERRFYEQMNGPVAGASRQENGASVILRDIARARENIQKSLAGSSGPGASSGTSGDHGELVVRIASLEVENQSLRGVVQELQQAISKLEARLNVLEKSSPGHRATAPQTQHVSPMRQVEPPAKKPATPAEDDEDDDIDLFGSDNEEEDKEAAQLREERLRQYAEKKAKKPALVAKSSILLDVKPWDDETDMAQLEACVRSIQLDGLVWGASKLVPVGYGIRKLQIQCVVEDDKVGTDLLEEEITKFEEHVQSVDIAAFNKI
With B1, the stoichiometry N in assay [1], in assay [2] and in assay [3] was 3 throughout.

B2: translation elongation factor eEF1A2 (natural protein, UniProt Q05639 1-463, looked up)
chain: MGKEKTHINIVVIGHVDSGKSTTTGHLIYKCGGIDKRTIEKFEKEAAEMGKGSFKYAWVLDKLKAERERGITIDISLWKFETTKYYITIIDAPGHRDFIKNMITGTSQADCAVLIVAAGVGEFEAGISKNGQTREHALLAYTLGVKQLIVGVNKMDSTEPAYSEKRYDEIVKEVSAYIKKIGYNPATVPFVPISGWHGDNMLEPSPNMPWFKGWKVERKEGNASGVSLLEALDTILPPTRPTDKPLRLPLQDVYKIGGIGTVPVGRVETGILRPGMVVTFAPVNITTEVKSVEMHHEALSEALPGDNVGFNVKNVSVKDIRRGNVCGDSKSDPPQEAAQFTSQVIILNHPGQISAGYSPVIDCHTAHIACKFAELKEKIDRRSGKKLEDNPKSLKSGDAAIVEMVPGKPMCVESFSQYPPLGRFAVRDMRQTVAVGVIKNVEKKSGGAGKVTKSAQKAQKAGK
B2: the “stoichiometry N” value in assay [4] was 6.

Usually stoichiometry N stands for a count of units in the complex or per binding partner.
